Experimental data published in US20250353930A1 (EXCELLERGY, published 2025).

T1: polyclonal human IgE (human)
T1 construct: Used at 10 nM to sensitise Hoxb8 mast cells overnight; also called surface IgE on Hoxb8 mast cells
T1 constant: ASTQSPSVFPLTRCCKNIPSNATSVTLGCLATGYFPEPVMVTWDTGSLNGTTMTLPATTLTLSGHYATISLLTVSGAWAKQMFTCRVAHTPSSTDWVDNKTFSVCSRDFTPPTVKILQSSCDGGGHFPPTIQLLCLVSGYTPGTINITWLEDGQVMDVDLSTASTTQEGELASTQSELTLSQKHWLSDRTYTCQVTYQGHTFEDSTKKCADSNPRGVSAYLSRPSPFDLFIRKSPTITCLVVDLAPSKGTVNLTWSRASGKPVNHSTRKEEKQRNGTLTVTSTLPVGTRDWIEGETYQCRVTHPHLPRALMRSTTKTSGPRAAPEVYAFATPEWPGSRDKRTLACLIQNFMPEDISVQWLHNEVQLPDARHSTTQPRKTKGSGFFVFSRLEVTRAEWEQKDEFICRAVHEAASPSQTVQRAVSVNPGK

B1: C4 (antibody, human IgG1, kappa)
heavy: not shown
light: DIQLTQSPSSLSASVGDRVTITCRASKSVDADGDSYMNWYQAKPGRHPKLLIYAASYLESGVPSRFSGSGSGTDFTLTISSLQPEDFATYYCQQSHEDPYTFGQGTKVEIKGGRTVAAPSVFIFPPSDEQLKSGTASVVCLLNNFYPREAKVQWKVDNALQSGNSQESVTEQDSKDSTYSLSSTLTLSKADYEKHKVYACEVTHQGLSSPVTKSFNRGEC
notes: Whole IgG, comparator; also called Comparator 4; Comparator_4
B2: C6 (antibody, human IgG1, kappa)
heavy: not shown
light: DIQLTQSPSSLSASVGDRVTITCRASKSVDADGDSYMNWYQAKPGRHPKLLIYAASYLESGVPSRFSGSGSGTDFTLTISSLQPEDFATYYCQQSHEDPYTFGQGTKVEIKRTVAAPSVFIFPPSDEQLKSGTASVVCLLNNFYPREAKVQWKVDNALQSGNSQESVTEQDSKDSTYSLSSTLTLSKADYEKHKVYACEVTHQGLSSPVTKSFNRGEC
notes: Whole IgG, comparator; also called Comparator 6; Comparator_6
B3: C5 (antibody, human IgG1, kappa)
heavy: not shown
light: DIQLTQSPSSLSASVGDRVTITCRASKSVDADGDSYMNWYQAKPGRHPKLLIYAASYLESGVPSRFSGSGSGTDFTLTISSLQPEDFATYYCQQSHEDPYTFGQGTKVEIKGRTVAAPSVFIFPPSDEQLKSGTASVVCLLNNFYPREAKVQWKVDNALQSGNSQESVTEQDSKDSTYSLSSTLTLSKADYEKHKVYACEVTHQGLSSPVTKSFNRGEC
notes: Whole IgG, comparator; also called Comparator 5; Comparator_5

Target: T1, polyclonal human IgE
Experiment: flow cytometry of surface IgE on Hoxb8 mast cells with human FcεRI, 20 h; dissociation of IgE from FcεRI

Binder	IC50 [µM]
B1	0.815
B2	2.01
B3	1.07
